# In IntAct's records for PubMed 25910212:
# B1: Keratin, type II cytoskeletal 2 epidermal (Homo sapiens), P35908 (parent)
# chain: MSCQISCKSRGRGGGGGGFRGFSSGSAVVSGGSRRSTSSFSCLSRHGGGGGGFGGGGFGSRSLVGLGGTKSISISVAGGGGGFGAAGGFGGRGGGFGGGSSFGGGSGFSGGGFGGGGFGGGRFGGFGGPGGVGGLGGPGGFGPGGYPGGIHEVSVNQSLLQPLNVKVDPEIQNVKAQEREQIKTLNNKFASFIDKVRFLEQQNQVLQTKWELLQQMNVGTRPINLEPIFQGYIDSLKRYLDGLTAERTSQNSELNNMQDLVEDYKKKYEDEINKRTAAENDFVTLKKDVDNAYMIKVELQSKVDLLNQEIEFLKVLYDAEISQIHQSVTDTNVILSMDNSRNLDLDSIIAEVKAQYEEIAQRSKEEAEALYHSKYEELQVTVGRHGDSLKEIKIEISELNRVIQRLQGEIAHVKKQCKNVQDAIADAEQRGEHALKDARNKLNDLEEALQQAKEDLARLLRDYQELMNVKLALDVEIATYRKLLEGEECRMSGDLSSNVTVSVTSSTISSNVASKAAFGGSGGRGSSSGGGYSSGSSSYGSGGRQSGSRGGSGGGGSISGGGYGSGGGSGGRYGSGGGSKGGSISGGGYGSGGGKHSSGGGSRGGSSSGGGYGSGGGGSSSVKGSSGEAFGSSVTFSFR
# partner: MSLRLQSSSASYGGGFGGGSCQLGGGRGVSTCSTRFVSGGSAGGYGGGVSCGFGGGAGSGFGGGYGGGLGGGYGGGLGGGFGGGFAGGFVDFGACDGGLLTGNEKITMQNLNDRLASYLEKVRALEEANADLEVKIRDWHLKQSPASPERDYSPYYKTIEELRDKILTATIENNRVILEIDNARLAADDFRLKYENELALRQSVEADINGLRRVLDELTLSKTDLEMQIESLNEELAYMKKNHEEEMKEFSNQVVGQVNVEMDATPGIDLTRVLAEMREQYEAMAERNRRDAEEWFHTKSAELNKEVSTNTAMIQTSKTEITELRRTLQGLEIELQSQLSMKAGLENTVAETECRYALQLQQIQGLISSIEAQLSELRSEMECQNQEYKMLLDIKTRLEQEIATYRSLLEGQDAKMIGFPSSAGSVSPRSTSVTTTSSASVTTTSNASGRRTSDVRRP
# B2: Fibulin-5 (Homo sapiens), Q9UBX5 (parent)
# chain: MPGIKRILTVTILALCLPSPGNAQAQCTNGFDLDRQSGQCLDIDECRTIPEACRGDMMCVNQNGGYLCIPRTNPVYRGPYSNPYSTPYSGPYPAAAPPLSAPNYPTISRPLICRFGYQMDESNQCVDVDECATDSHQCNPTQICINTEGGYTCSCTDGYWLLEGQCLDIDECRYGYCQQLCANVPGSYSCTCNPGFTLNEDGRSCQDVNECATENPCVQTCVNTYGSFICRCDPGYELEEDGVHCSDMDECSFSEFLCQHECVNQPGTYFCSCPPGYILLDDNRSCQDINECEHRNHTCNLQQTCYNLQGGFKCIDPIRCEEPYLRISDNRCMCPAENPGCRDQPFTILYRDMDVVSGRSVPADIFQMQATTRYPGAYYIFQIKSGNEGREFYMRQTGPISATLVMTRPIKGPREIQLDLEMITVNTVINFRGSSVIRLRIYVSQYPF
# partner: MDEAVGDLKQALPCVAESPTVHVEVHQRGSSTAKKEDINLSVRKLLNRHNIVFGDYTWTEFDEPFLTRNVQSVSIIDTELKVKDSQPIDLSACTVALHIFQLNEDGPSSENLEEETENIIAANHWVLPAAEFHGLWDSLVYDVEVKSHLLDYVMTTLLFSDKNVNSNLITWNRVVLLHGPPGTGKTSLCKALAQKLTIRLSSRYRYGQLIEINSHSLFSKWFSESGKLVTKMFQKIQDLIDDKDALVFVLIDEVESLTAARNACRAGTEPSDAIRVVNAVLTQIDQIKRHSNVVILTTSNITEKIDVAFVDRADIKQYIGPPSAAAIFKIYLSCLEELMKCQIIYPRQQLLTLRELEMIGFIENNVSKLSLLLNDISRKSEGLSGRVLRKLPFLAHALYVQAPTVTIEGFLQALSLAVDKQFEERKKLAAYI
# B3: Cyclin-dependent kinase 4 (Homo sapiens), P11802 (parent)
# chain: MATSRYEPVAEIGVGAYGTVYKARDPHSGHFVALKSVRVPNGGGGGGGLPISTVREVALLRRLEAFEHPNVVRLMDVCATSRTDREIKVTLVFEHVDQDLRTYLDKAPPPGLPAETIKDLMRQFLRGLDFLHANCIVHRDLKPENILVTSGGTVKLADFGLARIYSYQMALTPVVVTLWYRAPEVLLQSTYATPVDMWSVGCIFAEMFRRKPLFCGNSEADQLGKIFDLIGLPPEDDWPRDVSLPRGAFPPRGPRPVQSVVPEMEESGAQLLLEMLTFNPHKRISAFRALQHSYLHKDEGNPE
# partner: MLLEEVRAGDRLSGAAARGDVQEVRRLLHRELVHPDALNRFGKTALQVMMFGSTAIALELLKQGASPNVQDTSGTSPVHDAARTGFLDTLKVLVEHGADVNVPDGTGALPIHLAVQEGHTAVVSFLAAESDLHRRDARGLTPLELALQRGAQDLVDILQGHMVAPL
# B4: Ubiquitin-protein ligase (Homo sapiens), Q05086 (parent)
# chain: MEKLHQCYWKSGEPQSDDIEASRMKRAAAKHLIERYYHQLTEGCGNEACTNEFCASCPTFLRMDNNAAAIKALELYKINAKLCDPHPSKKGASSAYLENSKGAPNNSCSEIKMNKKGARIDFKDVTYLTEEKVYEILELCREREDYSPLIRVIGRVFSSAEALVQSFRKVKQHTKEELKSLQAKDEDKDEDEKEKAACSAAAMEEDSEASSSRIGDSSQGDNNLQKLGPDDVSVDIDAIRRVYTRLLSNEKIETAFLNALVYLSPNVECDLTYHNVYSRDPNYLNLFIIVMENRNLHSPEYLEMALPLFCKAMSKLPLAAQGKLIRLWSKYNADQIRRMMETFQQLITYKVISNEFNSRNLVNDDDAIVAASKCLKMVYYANVVGGEVDTNHNEEDDEEPIPESSELTLQELLGEERRNKKGPRVDPLETELGVKTLDCRKPLIPFEEFINEPLNEVLEMDKDYTFFKVETENKFSFMTCPFILNAVTKNLGLYYDNRIRMYSERRITVLYSLVQGQQLNPYLRLKVRRDHIIDDALVRLEMIAMENPADLKKQLYVEFEGEQGVDEGGVSKEFFQLVVEEIFNPDIGMFTYDESTKLFWFNPSSFETEGQFTLIGIVLGLAIYNNCILDVHFPMVVYRKLMGKKGTFRDLGDSHPVLYQSLKDLLEYEGNVEDDMMITFQISQTDLFGNPMMYDLKENGDKIPITNENRKEFVNLYSDYILNKSVEKQFKAFRRGFHMVTNESPLKYLFRPEEIELLICGSRNLDFQALEETTEYDGGYTRDSVLIREFWEIVHSFTDEQKRLFLQFTTGTDRAPVGGLGKLKMIIAKNGPDTERLPTSHTCFNVLLLPEYSSKEKLKERLLKAITYAKGFGML
# partner: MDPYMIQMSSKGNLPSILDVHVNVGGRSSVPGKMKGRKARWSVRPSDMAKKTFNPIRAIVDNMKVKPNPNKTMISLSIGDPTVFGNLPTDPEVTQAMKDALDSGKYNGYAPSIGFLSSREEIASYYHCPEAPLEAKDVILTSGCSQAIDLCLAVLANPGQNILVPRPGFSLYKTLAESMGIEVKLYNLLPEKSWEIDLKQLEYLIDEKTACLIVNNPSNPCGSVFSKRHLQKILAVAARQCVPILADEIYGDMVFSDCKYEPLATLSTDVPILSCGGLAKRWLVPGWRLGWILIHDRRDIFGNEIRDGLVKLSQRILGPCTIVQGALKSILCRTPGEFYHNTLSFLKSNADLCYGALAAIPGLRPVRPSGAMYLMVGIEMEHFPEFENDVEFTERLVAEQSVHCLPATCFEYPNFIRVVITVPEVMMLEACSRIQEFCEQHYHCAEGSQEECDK
# B5: Three-prime repair exonuclease 1 (Homo sapiens), Q9NSU2-1 (parent)
# chain: MGPGARRQGRIVQGRPEMCFCPPPTPLPPLRILTLGTHTPTPCSSPGSAAGTYPTMGSQALPPGPMQTLIFFDMEATGLPFSQPKVTELCLLAVHRCALESPPTSQGPPPTVPPPPRVVDKLSLCVAPGKACSPAASEITGLSTAVLAAHGRQCFDDNLANLLLAFLRRQPQPWCLVAHNGDRYDFPLLQAELAMLGLTSALDGAFCVDSITALKALERASSPSEHGPRKSYSLGSIYTRLYGQSPPDSHTAEGDVLALLSICQWRPQALLRWVDAHARPFGTIRPMYGVTASARTKPRPSAVTTTAHLATTRNTSPSLGESRGTKDLPPVKDPGALSREGLLAPLGLLAILTLAVATLYGLSLATPGE
# partner: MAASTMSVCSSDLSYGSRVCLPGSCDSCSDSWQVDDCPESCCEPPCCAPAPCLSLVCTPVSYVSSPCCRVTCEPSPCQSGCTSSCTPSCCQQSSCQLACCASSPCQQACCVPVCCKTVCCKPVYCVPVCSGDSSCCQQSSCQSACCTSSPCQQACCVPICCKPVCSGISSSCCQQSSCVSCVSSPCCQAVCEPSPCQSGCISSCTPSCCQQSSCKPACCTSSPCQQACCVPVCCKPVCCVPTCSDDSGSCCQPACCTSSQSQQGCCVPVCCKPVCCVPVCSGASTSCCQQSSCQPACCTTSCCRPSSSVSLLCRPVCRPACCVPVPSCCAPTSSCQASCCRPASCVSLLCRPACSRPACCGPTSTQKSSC
# B6: 60 kDa heat shock protein, mitochondrial (Homo sapiens), P10809 (parent)
# chain: MLRLPTVFRQMRPVSRVLAPHLTRAYAKDVKFGADARALMLQGVDLLADAVAVTMGPKGRTVIIEQSWGSPKVTKDGVTVAKSIDLKDKYKNIGAKLVQDVANNTNEEAGDGTTTATVLARSIAKEGFEKISKGANPVEIRRGVMLAVDAVIAELKKQSKPVTTPEEIAQVATISANGDKEIGNIISDAMKKVGRKGVITVKDGKTLNDELEIIEGMKFDRGYISPYFINTSKGQKCEFQDAYVLLSEKKISSIQSIVPALEIANAHRKPLVIIAEDVDGEALSTLVLNRLKVGLQVVAVKAPGFGDNRKNQLKDMAIATGGAVFGEEGLTLNLEDVQPHDLGKVGEVIVTKDDAMLLKGKGDKAQIEKRIQEIIEQLDVTTSEYEKEKLNERLAKLSDGVAVLKVGGTSDVEVNEKKDRVTDALNATRAAVEEGIVLGGGCALLRCIPALDSLTPANEDQKIGIEIIKRTLKIPAMTIAKNAGVEGSLIVEKIMQSSSEVGYDAMAGDFVNMVEKGIIDPTKVVRTALLDAAGVASLLTTAEVVVTEIPKEEKDPGMGAMGGMGGGMGGGMF
# B7: Emerin (Homo sapiens), P50402 (parent)
# chain: MDNYADLSDTELTTLLRRYNIPHGPVVGSTRRLYEKKIFEYETQRRRLSPPSSSAASSYSFSDLNSTRGDADMYDLPKKEDALLYQSKGYNDDYYEESYFTTRTYGEPESAGPSRAVRQSVTSFPDADAFHHQVHDDDLLSSSEEECKDRERPMYGRDSAYQSITHYRPVSASRSSLDLSYYPTSSSTSFMSSSSSSSSWLTRRAIRPENRAPGAGLGQDRQVPLWGQLLLFLVFVIVLFFIYHFMQAEEGNPF
# partner: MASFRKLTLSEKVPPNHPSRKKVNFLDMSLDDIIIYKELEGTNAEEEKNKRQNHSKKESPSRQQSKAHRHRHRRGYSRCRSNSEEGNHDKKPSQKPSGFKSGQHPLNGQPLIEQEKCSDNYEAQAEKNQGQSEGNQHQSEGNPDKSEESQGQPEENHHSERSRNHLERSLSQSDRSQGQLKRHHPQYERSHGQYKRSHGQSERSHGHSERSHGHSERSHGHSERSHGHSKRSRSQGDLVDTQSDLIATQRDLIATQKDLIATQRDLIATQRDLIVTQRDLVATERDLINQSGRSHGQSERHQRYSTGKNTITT
# B8: Dolichol-phosphate mannosyltransferase subunit 1 (Homo sapiens), O60762 (parent)
# chain: MASLEVSRSPRRSRRELEVRSPRQNKYSVLLPTYNERENLPLIVWLLVKSFSESGINYEIIIIDDGSPDGTRDVAEQLEKIYGSDRILLRPREKKLGLGTAYIHGMKHATGNYIIIMDADLSHHPKFIPEFIRKQKEGNFDIVSGTRYKGNGGVYGWDLKRKIISRGANFLTQILLRPGASDLTGSFRLYRKEVLEKLIEKCVSKGYVFQMEMIVRARQLNYTIGEVPISFVDRVYGESKLGGNEIVSFLKGLLTLFATT
# Variants of: B1
# Details: with KRT13, P13646
row,Variant,effect of a mutation on the interaction
1,G219D,with no effect

# Variants of: B2
# Details: with pch2_human TRIP13, Q15645
row,Variant,effect of a mutation on the interaction
1,V60L,disrupting interaction strength

# Variants of: B3
# Details: with cdn2d_human CDKN2D
row,Variant,effect of a mutation on the interaction
1,N41S,with no effect
2,R24C,with no effect
3,R24H,with no effect
4,S52N,with no effect

# Variants of: B4
# Details: with atty_human TAT
row,Variant,effect of a mutation on the interaction
1,R529C,disrupting interaction strength
2,S372P,disrupting interaction strength
3,I827K,disrupting interaction strength

# Variants of: B5
# Details: with kr107_human KRTAP10-7, P60409
row,Variant,effect of a mutation on the interaction
1,R169H,with no effect
2,G361A,with no effect
3,A213V,with no effect

# Variants of: B6
# Details: with lzts2_human LZTS2, Q9BRK4
# Chain of lzts2_human LZTS2, Q9BRK4 (Q9BRK4 whole entry): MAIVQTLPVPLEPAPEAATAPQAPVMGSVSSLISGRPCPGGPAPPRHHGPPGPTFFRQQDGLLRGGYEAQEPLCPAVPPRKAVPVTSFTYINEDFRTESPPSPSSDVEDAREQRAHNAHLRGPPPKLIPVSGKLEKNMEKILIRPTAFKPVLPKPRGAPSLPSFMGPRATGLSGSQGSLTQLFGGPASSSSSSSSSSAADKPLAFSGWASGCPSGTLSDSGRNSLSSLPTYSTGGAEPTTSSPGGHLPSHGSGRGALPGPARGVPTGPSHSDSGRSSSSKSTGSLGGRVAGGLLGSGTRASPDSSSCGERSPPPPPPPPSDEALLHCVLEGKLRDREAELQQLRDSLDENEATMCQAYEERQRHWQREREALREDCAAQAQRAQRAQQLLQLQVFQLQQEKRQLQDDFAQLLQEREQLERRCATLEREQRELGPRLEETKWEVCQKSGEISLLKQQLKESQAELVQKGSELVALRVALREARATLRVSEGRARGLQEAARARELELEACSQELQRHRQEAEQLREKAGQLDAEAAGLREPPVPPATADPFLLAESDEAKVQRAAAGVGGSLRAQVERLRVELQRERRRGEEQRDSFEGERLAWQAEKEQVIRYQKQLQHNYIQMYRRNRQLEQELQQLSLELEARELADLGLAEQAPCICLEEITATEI
row,Variant,effect of a mutation on the interaction
1,Q461E,with no effect
2,V98I,with no effect
3,D29G,disrupting interaction strength

# Variants of: B7
# Details: with luzp4_human LUZP4, Q9P127
row,Variant,effect of a mutation on the interaction
1,D72V,with no effect
2,S54F,with no effect
3,P183H,with no effect
4,P183T,with no effect

# Variants of: B8
# Details: with t23o_human TDO2, P48775
# Chain of t23o_human TDO2, P48775 (P48775 whole entry, looked up): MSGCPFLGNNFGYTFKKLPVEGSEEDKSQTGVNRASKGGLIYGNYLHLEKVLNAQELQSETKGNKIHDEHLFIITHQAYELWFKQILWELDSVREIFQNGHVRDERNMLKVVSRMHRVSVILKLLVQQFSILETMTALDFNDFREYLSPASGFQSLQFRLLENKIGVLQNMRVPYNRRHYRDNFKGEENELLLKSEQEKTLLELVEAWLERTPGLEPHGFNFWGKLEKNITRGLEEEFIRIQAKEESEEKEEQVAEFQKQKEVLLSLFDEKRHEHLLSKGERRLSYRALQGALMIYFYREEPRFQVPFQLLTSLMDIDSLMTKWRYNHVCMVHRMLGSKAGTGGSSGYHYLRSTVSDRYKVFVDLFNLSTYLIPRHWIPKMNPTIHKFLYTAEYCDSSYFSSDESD
row,Variant,effect of a mutation on the interaction
1,S248P,with no effect
2,R92G,with no effect
